Measured values taken from US20230183336A1 (MODMAB THERAPEUTICS, published 2023).

T1: recombinant mouse LRP5-His chimera (mouse, UniProt Q91VN0 31-1383)
T1 construct: extracellular domain; also called ECD of mouse LRP5; not shown: His tag
T1 sequence (looked up): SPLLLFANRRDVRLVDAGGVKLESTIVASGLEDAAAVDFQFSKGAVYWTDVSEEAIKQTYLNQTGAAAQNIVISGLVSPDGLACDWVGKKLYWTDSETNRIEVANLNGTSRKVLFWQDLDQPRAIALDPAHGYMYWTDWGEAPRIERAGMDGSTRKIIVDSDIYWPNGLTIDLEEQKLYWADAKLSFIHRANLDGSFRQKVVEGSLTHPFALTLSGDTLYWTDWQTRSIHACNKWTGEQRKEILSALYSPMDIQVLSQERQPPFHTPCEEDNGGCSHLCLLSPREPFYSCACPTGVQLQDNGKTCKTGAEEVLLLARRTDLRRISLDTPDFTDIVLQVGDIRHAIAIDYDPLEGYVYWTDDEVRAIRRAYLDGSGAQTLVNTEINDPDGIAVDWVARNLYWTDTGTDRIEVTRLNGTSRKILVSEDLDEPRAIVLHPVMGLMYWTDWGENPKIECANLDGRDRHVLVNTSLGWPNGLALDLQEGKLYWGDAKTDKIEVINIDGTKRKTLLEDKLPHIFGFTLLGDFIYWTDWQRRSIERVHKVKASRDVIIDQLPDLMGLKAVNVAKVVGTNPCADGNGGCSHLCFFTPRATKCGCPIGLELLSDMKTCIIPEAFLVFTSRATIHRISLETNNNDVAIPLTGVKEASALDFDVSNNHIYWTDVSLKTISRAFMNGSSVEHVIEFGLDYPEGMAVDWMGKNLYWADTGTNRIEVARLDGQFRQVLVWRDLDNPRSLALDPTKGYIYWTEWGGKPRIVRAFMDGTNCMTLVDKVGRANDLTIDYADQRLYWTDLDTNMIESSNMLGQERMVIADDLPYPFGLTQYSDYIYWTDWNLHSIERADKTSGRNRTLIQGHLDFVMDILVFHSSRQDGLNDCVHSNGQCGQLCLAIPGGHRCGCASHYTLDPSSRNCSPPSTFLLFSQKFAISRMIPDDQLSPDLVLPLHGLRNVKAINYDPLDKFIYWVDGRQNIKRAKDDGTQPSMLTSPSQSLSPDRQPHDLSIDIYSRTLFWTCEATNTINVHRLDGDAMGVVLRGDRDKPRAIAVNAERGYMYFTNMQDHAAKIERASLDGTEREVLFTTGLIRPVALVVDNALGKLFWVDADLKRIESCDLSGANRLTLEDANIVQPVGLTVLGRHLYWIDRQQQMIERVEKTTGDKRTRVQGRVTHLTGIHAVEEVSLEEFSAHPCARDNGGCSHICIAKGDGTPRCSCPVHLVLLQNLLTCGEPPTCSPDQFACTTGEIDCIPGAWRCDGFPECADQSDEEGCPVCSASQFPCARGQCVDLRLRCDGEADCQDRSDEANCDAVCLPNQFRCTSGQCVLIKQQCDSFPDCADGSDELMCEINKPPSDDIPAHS

T2: recombinant human LRP6-Fc chimera (human, UniProt O75581 20-1370)
T2 construct: extracellular domain; also called ECD of human LRP6; not shown: Fc part of the chimera
T2 sequence (looked up): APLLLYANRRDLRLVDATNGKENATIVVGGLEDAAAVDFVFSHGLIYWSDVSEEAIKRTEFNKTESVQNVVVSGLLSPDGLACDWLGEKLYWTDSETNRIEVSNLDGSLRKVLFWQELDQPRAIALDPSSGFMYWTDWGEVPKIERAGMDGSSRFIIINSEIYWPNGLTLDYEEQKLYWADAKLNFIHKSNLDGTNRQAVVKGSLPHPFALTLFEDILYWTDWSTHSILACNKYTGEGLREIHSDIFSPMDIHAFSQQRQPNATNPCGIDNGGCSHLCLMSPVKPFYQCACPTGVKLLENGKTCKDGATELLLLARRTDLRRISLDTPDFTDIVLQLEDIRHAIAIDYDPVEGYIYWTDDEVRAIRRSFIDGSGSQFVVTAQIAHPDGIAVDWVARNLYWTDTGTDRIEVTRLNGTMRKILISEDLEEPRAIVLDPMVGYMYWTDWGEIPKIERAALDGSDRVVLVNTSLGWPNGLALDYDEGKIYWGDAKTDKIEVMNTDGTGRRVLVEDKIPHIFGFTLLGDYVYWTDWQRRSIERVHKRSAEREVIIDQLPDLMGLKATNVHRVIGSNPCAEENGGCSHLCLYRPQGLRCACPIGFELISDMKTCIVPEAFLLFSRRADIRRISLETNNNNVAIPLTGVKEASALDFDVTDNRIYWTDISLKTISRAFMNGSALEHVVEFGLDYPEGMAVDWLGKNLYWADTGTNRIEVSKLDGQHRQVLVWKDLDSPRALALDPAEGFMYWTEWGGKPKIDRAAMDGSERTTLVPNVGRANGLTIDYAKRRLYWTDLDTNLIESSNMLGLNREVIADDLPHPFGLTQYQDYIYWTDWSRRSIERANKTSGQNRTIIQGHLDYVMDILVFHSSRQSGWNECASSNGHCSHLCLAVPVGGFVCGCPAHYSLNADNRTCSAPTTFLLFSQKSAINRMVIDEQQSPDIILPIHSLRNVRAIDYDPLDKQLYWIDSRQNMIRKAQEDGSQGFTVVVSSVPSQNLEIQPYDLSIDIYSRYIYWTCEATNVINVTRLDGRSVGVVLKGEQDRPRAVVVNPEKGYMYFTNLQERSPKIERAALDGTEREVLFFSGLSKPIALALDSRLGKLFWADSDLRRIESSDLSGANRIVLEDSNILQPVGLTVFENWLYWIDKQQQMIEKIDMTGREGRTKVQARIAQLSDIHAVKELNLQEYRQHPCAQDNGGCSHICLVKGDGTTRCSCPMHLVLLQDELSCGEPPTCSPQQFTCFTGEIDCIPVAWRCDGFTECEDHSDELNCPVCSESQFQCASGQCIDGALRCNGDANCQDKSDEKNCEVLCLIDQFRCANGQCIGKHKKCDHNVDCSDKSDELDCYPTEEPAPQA


Tests used:
[1] = molecular target: T1, recombinant mouse LRP5-His chimera; assay: single-point ELISA, coated antigen, purified Fab or IgG1, anti-kappa-HRP
Experimental: FIGS. 1A and 1B show sixteen (16) anti-LRP antibodies. (A) The amino acid sequences of the complementarity determining regions (CDR) of the heavy (H) and the light (L) chains are presented. The antibodies were grouped into unique epitopes as determined by competitive ELISAs. (B) Single-point ELISAs were performed on 96-well Maxisorb immune plates coated with ECD's of mouse LRP5, mouse LRP6 and human LRP6 chimeras. The plates were incubated with the purified Fab or IgG1 at the concentrations indicated followed by incubation with horseradish peroxidase (HRP)-conjugated anti-kappa antibody. The wells were washed eight times followed by incubation with 3,3′,5,5′-tetramethylbenzidine/H₂O₂ peroxidase (TMB) substrate for 5-10 min. The reaction was stopped by adding 1M H₃PO₄ and the absorbance was measured spectrometrically at 450 nm in a microtiter plate reader. FIG. 1A discloses “SSVA” as SEQ ID NO: 34, and “SASSLYS” as SEQ ID NO: 35, as well as SEQ ID NOS 36-49, 51, 44, 2-4, 4, 5-7, 5, 4, 5, 8-10, 4, 52, 55, 11-16, 15, 15, 13, 17-20, 13, 53, 56, 21-23, 22, 24-33, 54, 57, respectively, in order of columns.
(§1) The full length IgG1s and the antibody fragments (Fabs) were purified and a single-point ELISA was done to determine the specificity of the antibodies. […] A multipoint competitive ELISA was used to determine the relative affinities of the antibodies to the recombinant antigen.

[2] = molecular target: T2, recombinant human LRP6-Fc chimera; assay: multipoint competitive ELISA, IgG1; varied competitor printed as recombinant human LRP6-Fc chimera, while paragraph 283 says 'the recombinant antigen'
Excerpt: as §1
Table 3 reports the IC50 of LRP5 antibodies as determined by competitive ELISA. The log of the recombinant human LRP6-Fc chimera concentration (x-axis) was plotted against the OD450 reading of the antibody (y-axis). The IC50 was determined by non-linear regression analysis.

Row | Binder | binding result [1] | IC50 [2] [nM]
1 | LRP5-A7 (antibody, V domains shown, Fab-phage in the screen; also called LRP5-47) VH: EVQLVESGGGLVQPGGSLRLSCAASGFNLSYSSMHWVRQAPGKGLEWVASIYPYYGYTYYADSVKGRFTISADTSKNTAYLQMNSLRAEDTAVYYCARHGAMDYWGQGTLVTVSS VL: DIQMTQSPSSLSASVGDRVTITCRASQSVSSAVAWYQQKPGKAPKLLIYSASSLYSGVPSRFSGSRSGTDFTLTISSLQPEDFATYYCQQAWGWGLFTFGQGTKVEIKR | binds | 4.68
2 | LRP5-E5 (antibody, V domains shown, Fab-phage in the screen) VH: EVQLVESGGGLVQPGGSLRLSCAASGFNIYSYSIHWVRQAPGKGLEWVASIYPYSSYTSYADSVKGRFTISADTSKNTAYLQMNSLRAEDTAVYYCARYAVYFPGYYWGMDYWGQGTLVTVSS VL: DIQMTQSPSSLSASVGDRVTITCRASQSVSSAVAWYQQKPGKAPKLLIYSASSLYSGVPSRFSGSRSGTDFTLTISSLQPEDFATYYCQQYHYYYLFTFGQGTKVEIKR | binds | –
3 | LRP5-C12 (antibody, V domains shown, Fab-phage in the screen) VH: EVQLVESGGGLVQPGGSLRLSCAASGFNFSSSSIHWVRQAPGKGLEWVASIYSSYGSTSYADSVKGRFTISADTSKNTAYLQMNSLRAEDTAVYYCARTVRGSKKPYFSGWAMDYWGQGTLVTVSS VL: DIQMTQSPSSLSASVGDRVTITCRASQSVSSAVAWYQQKPGKAPKLLIYSASSLYSGVPSRFSGSRSGTDFTLTISSLQPEDFATYYCQQFSHVSLITFGQGTKVEIKR | binds | –
4 | LRP5-D9 (antibody, V domains shown, Fab-phage in the screen) VH: EVQLVESGGGLVQPGGSLRLSCAASGFNISYSYIHWVRQAPGKGLEWVASIYSSYGYTYYADSVKGRFTISADTSKNTAYLQMNSLRAEDTAVYYCARHYSYFFYAMDYWGQGTLVTVSS VL: DIQMTQSPSSLSASVGDRVTITCRASQSVSSAVAWYQQKPGKAPKLLIYSASSLYSGVPSRFSGSRSGTDFTLTISSLQPEDFATYYCQQASYSPITFGQGTKVEIKR | binds | 25.1
5 | LRP5-G9 (antibody, V domains shown, Fab-phage in the screen) VH: EVQLVESGGGLVQPGGSLRLSCAASGFNISYSYIHWVRQAPGKGLEWVASIYSSYGYTYYADSVKGRFTISADTSKNTAYLQMNSLRAEDTAVYYCARWGAYHSSGYGMDYWGQGTLVTVSS VL: DIQMTQSPSSLSASVGDRVTITCRASQSVSSAVAWYQQKPGKAPKLLIYSASSLYSGVPSRFSGSRSGTDFTLTISSLQPEDFATYYCQQSSSSPITFGQGTKVEIKR | – | 26.4
6 | LRP5-H9 (antibody, V domains shown, Fab-phage in the screen) VH: EVQLVESGGGLVQPGGSLRLSCAASGFNIYSYYIHWVRQAPGKGLEWVASIYSYYGYTYYADSVKGRFTISADTSKNTAYLQMNSLRAEDTAVYYCARSYPAMDYWGQGTLVTVSS VL: DIQMTQSPSSLSASVGDRVTITCRASQSVSSAVAWYQQKPGKAPKLLIYSASSLYSGVPSRFSGSRSGTDFTLTISSLQPEDFATYYCQQSSYSPITFGQGTKVEIKR | binds | 37.5
7 | LRP5-H3 (antibody, V domains shown, Fab-phage in the screen) VH: EVQLVESGGGLVQPGGSLRLSCAASGFNLYYYYIHWVRQAPGKGLEWVASISPYYGYTSYADSVKGRFTISADTSKNTAYLQMNSLRAEDTAVYYCARSGYGWYAMDYWGQGTLVTVSS VL: DIQMTQSPSSLSASVGDRVTITCRASQSVSSAVAWYQQKPGKAPKLLIYSASSLYSGVPSRFSGSRSGTDFTLTISSLQPEDFATYYCQQYWFLITFGQGTKVEIKR | binds | –
8 | LRP5-G11 (antibody, V domains shown, Fab-phage in the screen) VH: EVQLVESGGGLVQPGGSLRLSCAASGFNISYSYIHWVRQAPGKGLEWVASIYPSYGYTYYADSVKGRFTISADTSKNTAYLQMNSLRAEDTAVYYCARAAPYYGYYYSYAMDYWGQGTLVTVSS VL: DIQMTQSPSSLSASVGDRVTITCRASQSVSSAVAWYQQKPGKAPKLLIYSASSLYSGVPSRFSGSRSGTDFTLTISSLQPEDFATYYCQQGVSLITFGQGTKVEIKR | – | 25.1
9 | LRP5-A9 (antibody, V domains shown, Fab-phage in the screen) VH: EVQLVESGGGLVQPGGSLRLSCAASGFNISSYSIHWVRQAPGKGLEWVASSSYYGYTYYADSVKGRFTISADTSKNTAYLQMNSLRAEDTAVYYCARTVRGSKKPYFSGWAMDYWGQGTLVTVSS VL: DIQMTQSPSSLSASVGDRVTITCRASQSVSSAVAWYQQKPGKAPKLLIYSASSLYSGVPSRFSGSRSGTDFTLTISSLQPEDFATYYCQQVHYSPYSLITFGQGTKVEIKR | binds | –
